Four molecules from patent US20050152899A1, “EphA2 agonistic monoclonal antibodies and methods of use thereof” (priority 2002, published 2005) can be followed below.

In test [1] the test system is MCF-7^EphA2 cells. Briefly: Colony formation in soft agar, MCF-7^EphA2 cells. The format is cell-based. As to the method:
(§1) Tumor cells were suspended in soft agar. Colony formation in soft agar was assayed as described in Zelinski et al. (2001, Cancer Res. 61: 2301-6). Antibodies or a control solution (PBS) was included in bottom and top agar solutions. […] Colony formation was scored microscopically using an Olympus CK-3 inverted phase-contrast microscope outfitted with a 40× objective. Clusters containing at least three cells were scored as a positive. The average number of colonies per high-powered field is shown. Ten separate high-power microscopic fields were averaged in each experiment, and the results shown are representative of at least three separate experiments.
(§2) A549 malignant lung cancer cells were incubated with either 10 μg/ml or 2.5 μg/ml of EA5 or EA2 monoclonal antibodies or a control (PBS). […] Benign MCF-7 breast epithelial tumor cells were converted to malignant cells by the overexpression of EphA2 (MCF-7^EphA2). Both tumor cell types were incubated with either EA5 monoclonal antibodies or a control (PBS). […] Results are reported as colonies per high-powered field (HPF).
(§3) Growth assays were conducted as follows. MCF-7^neo (control cells) or MCF7^EphA2 cells were seeded in 96-well plates. […] Colony formation in soft agar was performed as previously described (Zelinski et al., 2001, Cancer Res. 61: 2301-6) and scored microscopically, defining clusters of at least three cells as a positive. The data represent the average of ten separate high-power microscopic fields from each sample and representative of at least three separate experiments. Error bars represent the standard error of the mean of at least three different experiments as determined using Microsoft Excel software.
Sensitivity of MCF-7^EphA2 cells to tamoxifen was measured.
Growth MCF-7^EphA2 cells which had decreased EphA2 expression levels was assayed in soft agar.

The subject of test [2] is MCF-7^EphA2 cells. Briefly: Tumorigenic potential of MCF-7^EphA2 vs MCF-7^neo cells in mammary fat pad under tamoxifen. In kind it is in vivo, athymic (nu/nu) mice. Particulars: MCF-7^EphA2 vs control MCF-7^neo; tamoxifen 1 mg oral gavage 6 days per week, supplemental estrogen.
Method: Six to eight week-old athymic (nu/nu) mice were purchased from Harlan Sprague Dawley (Indianapolis, Ind.). When indicated, a controlled release estradiol pellet (0.72 mg 17β-estradiol, 60-day formulation) was injected subcutaneously via a sterile 14-gauge trocar 24 hours prior to tumor implantation and pellets were replaced every 60 days for those experiments spanning >60 days in duration. 1×10^6 MCF-7^neo or MCF7^EphA2 cells were injected into the mammary fat pad under direct visualization. When indicated, tamoxifen (1 mg) was administered by oral gavage 6 days per week.
A further test deals with estrogen receptor. Briefly: Estrogen receptor activity, ERE-TK-CAT reporter. The settings on record: control and MCF-7^EphA2 cells, tamoxifen 10^−6 M. The format is cell-based.
The subject of another test is control MCF-7 cells. Briefly: Colony formation in soft agar, control MCF-7 cells. The format is cell-based. As to the method:
as §1, §3
Sensitivity of MCF-7^EphA2 cells to tamoxifen was measured. […]

Test [3] concerns the target T1, EphA2 (Homo sapiens, UniProt P29317). Briefly: Immunofluorescent staining of MDA-MB-231 and MCF-10A cells. Further details: endogenous in cells; host or cells: MDA-MB-231; MCF-10A. The format is binding. The text has this:
The epitope of the EphA2 antibodies were characterized. EA5 and EA2 selectively bind to malignant cells. The anti-EphA2 monoclonal antibodies EA5 and EA2 bind malignant MDA-MB-231 breast epithelial tumor cells (FIGS. 11A-11B) more strongly than benign MCF-10A breast epithelial tumor cells (FIGS. 11C-11D) as shown by immunofluorescent staining. […] The anti-EphA2 monoclonal antibody EA5 identified malignant prostate cancer cells in formalin-fixed, paraffin-embedded archival clinical specimens (FIG. 12).
EA5 preferentially binds an EphA2 epitope exposed on cancer cells but not non-cancer cells. Non-transformed MCF-10A cells or transformed MDA-MB-231 cells were incubated with 10 μg/ml EA2 at 4° C. for 30 min. prior to fixation in a 3% formalin solution and immunolabeling with fluorophore-conjugated anti-mouse IgG.

The target in test [4] is T1, EphA2. Briefly: EphA2 tyrosine phosphorylation and degradation in A549 cells (immunoprecipitation / western blot). The format is cell-based. On the set-up: endogenous in cells. Particulars: A549 monolayers. Here is the method: Western blot analyses and immunoprecipitations were performed as described previously (Zantek et al., 1999, Cell Growth Diff. 10: 629-38). Briefly, detergent extracts of cell monolayers were extracted in Tris-buffered saline containing 1% Triton X-100 (Sigma, St. Louis, Mo.). After measuring protein concentrations (BioRad, Hercules, Calif.), 1.5 mg of cell lysate was immunoprecipitated, resolved by SDS-PAGE and transferred to nitrocellulose (Protran, Schleicher and Schuell, Keene, N.H.). Antibody binding was detected by enhanced chemiluminescence (Pierce, Rockford, Ill.) and autoradiography (Kodak X-OMAT; Rochester, N.Y.).
Similar experiments were conducted with A549 cells. Monolayers of A549 cells were incubated at 37° C. in the presence of EA5 or EA2 or control (PBS) for either 10 minutes (FIGS. 2A-2B) or 5 hours (FIGS. 2C-2D). Cell lysates were then immunoprecipitated with an EphA2-specific antibody (D7), resolved by SDS-PAGE and subjected to western blot analysis with a phosphotyrosine-specific antibody (4G10, purchased from Upstate Biologicals, Inc., Lake Placid, N.Y.) (FIGS. 2A, 2C). The membranes were stripped and re-probed with the EphA2-specific antibody used in the immunoprecipitation (D7) as a loading control (FIGS. 2B, 2D). […] (FIG. 2D).

Test [5] relates to A549 malignant lung cancer cells. Briefly: Colony formation in soft agar, A549 cells. In kind it is cell-based. The settings on record: 10 μg/ml or 2.5 μg/ml, 7 days at 37° C., vs PBS. Here is the method:
Tumor cells were suspended in soft agar. Colony formation in soft agar was assayed as described in Zelinski et al. (2001, Cancer Res. 61: 2301-6). Antibodies or a control solution (PBS) was included in bottom and top agar solutions. Cells were suspended in soft agar for 7 days at 37° C. in the presence of purified antibody or control solution (PBS), administered at the time of suspension. Colony formation was scored microscopically using an Olympus CK-3 inverted phase-contrast microscope outfitted with a 40× objective. Clusters containing at least three cells were scored as a positive. The average number of colonies per high-powered field is shown. Ten separate high-power microscopic fields were averaged in each experiment, and the results shown are representative of at least three separate experiments.
as §2

Test [6] addresses T1, EphA2. Briefly: EphA2 tyrosine phosphorylation and degradation in MDA-MB-231 cells (immunoprecipitation / western blot). In kind it is cell-based. Further details: endogenous in cells; host or cells: MDA-MB-231; MCF-10A. The settings on record: MDA-MB-231 monolayers. Here is the method:
EphA2 antibodies promoted tyrosine phosphorylation and degradation of EphA2 in MDA-MB-231 (FIGS. 1A-1C) cells. Monolayers of cells were incubated in the presence of EA5 (FIGS. 1A-1B, lanes 2, 3) or EA2 (FIGS. 1A-1B, lanes 4, 5) or control (FIGS. 1A-1B, lane 1) for 8 minutes at 37° C. Cell lysates were then immunoprecipitated with an EphA2-specific antibody (D7, purchased from Upstate Biologicals, Inc., Lake Placid, N.Y. and deposited with the American Type Tissue Collection on Dec. 8, 2000, and assigned ATCC number PTA 2755), resolved by SDS-PAGE and subjected to western blot analysis with a phosphotyrosine-specific antibody (4G10, purchased from Upstate Biologicals, Inc., Lake Placid, N.Y.) (FIG. 1A). The membranes were stripped and re-probed with the EphA2-specific antibody used in the immunoprecipitation (D7) as a loading control.
Western blot analyses and immunoprecipitations were performed as described previously (Zantek et al., 1999, Cell Growth Diff. 10: 629-38). Briefly, detergent extracts of cell monolayers were extracted in Tris-buffered saline containing 1% Triton X-100 (Sigma, St. Louis, Mo.). […] Antibody binding was detected by enhanced chemiluminescence (Pierce, Rockford, Ill.) and autoradiography (Kodak X-OMAT; Rochester, N.Y.). […]
A general note: A western blot detects proteins with antibodies after separation by electrophoresis.

Test [7] deals with T2, EphA2-Ephrin A1-Fc complex (Homo sapiens, UniProt P29317).
T2 construct: consisting of the extracellular domain of EphA2 linked to human IgG1 constant region
Briefly: Binding to EphA2-Ephrin A1-Fc complex on microtiter plate. The settings on record: EphA2-Fc bound to immobilized Ephrin A1-Fc. Here is the method: (§4) A microtiter plate was coated with […] Ephrin A1-Fc overnight at 4° C. A fusion protein consisting of the extracellular domain of EphA2 linked to human IgG1 constant region (EphA2-Fc) was incubated with and bound to the immobilized Ephrin A1-Fc. Biotinylated Ephrin A1-Fc or EA5 was incubated with the EphA2-Ephrin A1-Fc complex and amount of binding was measured.

The target in test [8] is T2, EphA2-Ephrin A1-Fc complex. Briefly: Competition for labeled EA5 on EphA2-Ephrin A1-Fc complex. The format is binding. Particulars: biotinylated EA5 10 μg/ml, 30 min. Here is the method: as §4
The EphA2-Ephrin A1-Fc complex was prepared as described above. Biotinylated EA5 (10 μg/ml) was then incubated with the complex for 30 min. Unlabeled competitor was incubated with EphA2-Ephrin A1-Fc-EA5 complex in the indicated amount. Unlabeled EA5 could displace the labeled EA5 at concentrations of 100 ng/ml or greater.

T1 sequence (P29317 24-976): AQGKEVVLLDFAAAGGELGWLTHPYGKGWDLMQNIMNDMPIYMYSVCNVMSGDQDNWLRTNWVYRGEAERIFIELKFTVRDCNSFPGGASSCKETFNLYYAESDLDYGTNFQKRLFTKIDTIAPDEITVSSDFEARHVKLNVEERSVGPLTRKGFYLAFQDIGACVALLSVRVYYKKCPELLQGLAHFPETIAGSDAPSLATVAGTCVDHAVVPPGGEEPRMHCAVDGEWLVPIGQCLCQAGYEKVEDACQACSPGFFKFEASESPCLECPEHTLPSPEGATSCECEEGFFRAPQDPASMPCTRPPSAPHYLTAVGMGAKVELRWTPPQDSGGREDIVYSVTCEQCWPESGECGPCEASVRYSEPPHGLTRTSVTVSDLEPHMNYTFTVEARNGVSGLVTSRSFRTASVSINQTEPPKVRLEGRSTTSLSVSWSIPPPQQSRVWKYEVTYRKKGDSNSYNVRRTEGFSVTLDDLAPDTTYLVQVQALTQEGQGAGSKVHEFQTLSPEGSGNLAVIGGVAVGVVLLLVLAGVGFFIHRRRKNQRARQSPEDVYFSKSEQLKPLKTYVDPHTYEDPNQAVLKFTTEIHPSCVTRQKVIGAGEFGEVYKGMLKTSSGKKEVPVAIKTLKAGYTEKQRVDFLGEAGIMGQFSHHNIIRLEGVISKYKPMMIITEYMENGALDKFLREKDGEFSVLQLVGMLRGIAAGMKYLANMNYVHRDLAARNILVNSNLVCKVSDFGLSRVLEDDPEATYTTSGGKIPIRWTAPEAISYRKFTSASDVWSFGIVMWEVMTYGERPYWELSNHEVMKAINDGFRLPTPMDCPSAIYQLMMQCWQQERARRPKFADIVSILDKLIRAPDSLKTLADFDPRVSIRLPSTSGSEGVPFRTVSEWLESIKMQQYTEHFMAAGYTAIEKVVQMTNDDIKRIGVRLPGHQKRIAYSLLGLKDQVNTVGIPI
T2 sequence (P29317 24-537 limits assumed, one chain of several): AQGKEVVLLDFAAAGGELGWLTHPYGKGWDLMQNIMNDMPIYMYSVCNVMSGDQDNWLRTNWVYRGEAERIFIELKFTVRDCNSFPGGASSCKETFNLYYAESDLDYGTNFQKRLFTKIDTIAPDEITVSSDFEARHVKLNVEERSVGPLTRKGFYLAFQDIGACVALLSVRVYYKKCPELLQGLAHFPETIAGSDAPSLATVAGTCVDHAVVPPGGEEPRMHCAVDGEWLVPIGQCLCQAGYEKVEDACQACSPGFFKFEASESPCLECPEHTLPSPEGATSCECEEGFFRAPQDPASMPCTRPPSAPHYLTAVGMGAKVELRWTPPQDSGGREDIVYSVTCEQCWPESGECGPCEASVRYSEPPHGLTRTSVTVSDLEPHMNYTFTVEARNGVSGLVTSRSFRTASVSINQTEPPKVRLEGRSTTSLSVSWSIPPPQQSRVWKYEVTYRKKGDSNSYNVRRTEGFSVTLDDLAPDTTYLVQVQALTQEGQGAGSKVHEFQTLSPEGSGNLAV
Method for estrogen receptor: Estrogen receptor activity was measured using ERE-TK-CAT vector (which encodes a single ERE; a generous gift from Dr. Nakshatri, Indiana University School of Medicine) in the unstimulated state, after estradiol (10^−8 M) stimulation and tamoxifen (10^−6 M) inhibition. Cells were plated in phenol red free, charcoal stripped sera for 2 days and transfected with ERE-TK-CAT (5 μg) using calcium phosphate method. The β-galactosidase expression vector RSV/β-galactosidase (2 μg, Dr. Nakshatri's gift) was cotransfected as a control. Fresh media including the appropriate selection drugs were added 24 hours after transfection. Cells were harvested after 24 hours and CAT activity was evaluated as described (Nakshatri et al., 1997, Mol. Cell. Biol. 17: 3629-39).

For the molecule `C[C@]12CC[C@@H]3c4ccc(O)cc4CC[C@H]3[C@@H]1CC[C@@H]2O` [estradiol, 17β-estradiol, reference compound], the “Effect of excess estradiol on tamoxifen inhibition of soft agar colonization” value with MCF-7^EphA2 cells [1] (1 μM tamoxifen and 1 μM 17β-estradiol, MCF-7 or MCF-7^EphA2 cells (FIG. 8A)) was “overcame the inhibitory effects of tamoxifen”.
The inhibition is the relative decrease from the control value, in per cent. For `CC/C(=C(\c1ccccc1)c1ccc(OCCN(C)C)cc1)c1ccccc1` [tamoxifen], the inhibition at 1 µM in the test with MCF-7^EphA2 cells [1] (336 h, MCF-7^EphA2 cells, 1 μM tamoxifen, 14 days (FIG. 8A), read-out: Inhibition of soft agar colonization) was found to be 25%; in the test on control MCF-7 cells (Homo sapiens, MCF7, matched control MCF-7 cells, tamoxifen 1 μM (FIG. 10C), read-out: Inhibition of soft agar colonization), 75%. For the same molecule, the “Decrease in soft agar colonization” value in the test on MCF-7^EphA2 cells [1] (MCF-7^EphA2 cells, tamoxifen 1 μM and/or EA5 10 μg/ml (FIG. 10C)) turned out to be 25%. Moreover, the “Sensitivity of tumorigenic potential to tamoxifen” value in the test on MCF-7^EphA2 cells [2] is “less sensitive to tamoxifen”. For the same molecule, the “Estrogen receptor activity (CAT)” value in the test with estrogen receptor is “remained sensitive to tamoxifen”. Moreover, the “Reduction of soft agar colonization” value in the test on control MCF-7 cells (control MCF-7 cells, 1 μM tamoxifen, 14 days (FIG. 8A)) is listed as “at least 60%”.

B1: EA2: EphA2 agonistic monoclonal antibody; hybridoma strain EA2.31, ATCC PTA-4380; VL SEQ ID NO:1, VH SEQ ID NO:5 (antibody, listed as Homo Sapiens, V domains shown)
VH: DVKLVESGGGLVKPGGSLKLSCAASGFTFSSYTMSWVRQTPEKRLEWVATISSGGTYTYYPDSVKGRFTISRDNAKNTLYLQMSSLKSEDTAMYYCTREAIFTYWGQGTLVTVSA
VL: DIKMTQSPSSMYASLGERVTITCKASQDINNYLSWFQQKPGKSPKTLIYRANRLVDGVPSRFSGSGSGQDYSLTISSLEYEDMGIYYCLKYDEFPYTFGGGTKLEIK
Take B1: the “Binding to malignant MDA-MB-231 vs benign MCF-10A cells” value with EphA2 [3] was “more strongly”. Also, the EphA2 phosphorylation entry with EphA2 [4] (10 minutes at 37° C.) is “increase in phosphorylation”. Further, in the test with EphA2 [4] (5 hours at 37° C.), the EphA2 protein degradation entry is listed as “degradation of the EphA2 protein”. Besides, the “Cell growth in soft agar (colonies per high-powered field)” value in [5] is reported as “inhibited cell growth in soft agar”. Further, the EphA2 protein levels result with EphA2 [6] (30 μg/ml, 24 hours at 37° C.) is recorded as “decrease”. Besides, in the test with EphA2 [6] (8 minutes at 37° C., phosphotyrosine western blot), the “Levels of EphA2 phosphorylation” value is given as “increase”.

B2: Ephrin A1-Fc: Fc form of the EphA2 ligand Ephrin A1, used biotinylated or unlabeled (protein)
chain: DRHTVFWNSSNPKFRNEDYTIHVQLNDYVDIICPHYEDHSVADAAMEQYILYLVEHEEYQLCQPQSKDQVRWQCNRPSAKHGPEKLSEKFQRFTPFTLGKEFKEGHSYYYISKPIHQHEDRCLRLKVTVSGKITHSPQAHDNPQEKRLAADDPEVRVLHSIGHS
modifications: left off: a dimerising Fc or GST
notes: Fc form of the EphA2 ligand Ephrin A1, used biotinylated or unlabeled
Turning to B2, the “Amount of biotinylated protein bound to EphA2-Ephrin A1-Fc complex” value in test [7] was “Very little additional Ephrin A1-Fc bound”. Also, the “Displacement of labeled EA5 by unlabeled competitor” value in test [8] was “did not significantly displace labeled EA5”.
